This data set concerns the target T1, LmrR (Lactococcus lactis) (UniProt A2RI36).
T1 sequence: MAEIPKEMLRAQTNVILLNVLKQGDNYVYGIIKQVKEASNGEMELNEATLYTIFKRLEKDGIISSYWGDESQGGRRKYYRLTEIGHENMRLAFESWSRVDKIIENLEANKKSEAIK
The experiment in a line: NMR titration. As to conditions: apo; apparent Kd per base pair; DNA is a fragment pool; 10 mM NaPi pH 6.8, 100 mM NaCl, 25 C (ITC; same buffer for NMR); 5% DMSO in riboflavin titrations.

With sonicated E. coli genomic DNA, the Kd came to 37 µM.

(Values after article PMC5428041, “Dynamic equilibrium on DNA defines transcriptional regulation of a multidrug binding transcriptional repressor, LmrR” (Scientific Reports, 2017).)
